# Patent US20240092867A1 (UNIVERSITY OF CHICAGO, published 2024)
# T1: recombinant laminin α3 2928-3150 protein (linker domain and LG4 domain) (human, UniProt Q16787 2928-3150)
# T1 construct: range 2928-3150; Made in HEK-293F cells; also called laminin alpha 3 LG domain recombinant protein
# T1 sequence: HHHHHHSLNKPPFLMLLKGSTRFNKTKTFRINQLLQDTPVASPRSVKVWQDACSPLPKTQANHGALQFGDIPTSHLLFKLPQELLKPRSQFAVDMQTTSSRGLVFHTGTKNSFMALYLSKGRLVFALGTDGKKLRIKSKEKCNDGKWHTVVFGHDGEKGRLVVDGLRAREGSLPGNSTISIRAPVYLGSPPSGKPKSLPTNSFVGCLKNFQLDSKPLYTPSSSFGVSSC
# T2: recombinant human VEGF-A145 (human, UniProt P15692-6 27-171)
# T2 sequence (looked up): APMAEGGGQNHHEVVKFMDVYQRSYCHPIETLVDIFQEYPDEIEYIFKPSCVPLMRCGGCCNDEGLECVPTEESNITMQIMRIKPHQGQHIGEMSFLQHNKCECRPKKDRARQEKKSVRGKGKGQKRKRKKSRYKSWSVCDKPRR
# B1: vascular endothelial growth factor (VEGF)-A121 (ligand, human, UniProt P15692-9 27-147, looked up)
# chain: APMAEGGGQNHHEVVKFMDVYQRSYCHPIETLVDIFQEYPDEIEYIFKPSCVPLMRCGGCCNDEGLECVPTEESNITMQIMRIKPHQGQHIGEMSFLQHNKCECRPKKDRARQEKCDKPRR
# notes: mature; Purchased in mature form, not glycosylated
# Key:
# [1] = target: T3, recombinant human vWF A2 domain (human, UniProt P04275 1498-1665); test: ELISA; peptides and vWF forms coated at 50 nM, VEGF-A in solution, detected with anti-VEGF-A antibody [panel D]
# T3 construct: domain: A2
# Method: (§1) (A) Diagram of exon sequence of VEGF-A showing inclusion (+) or exclusion (−) of heparin binding domain exons for the different VEGF-A isoforms. […] Bound VEGF-A was detected using a specific antibody for VEGF-A (n=4, mean±SD). Statistical comparisons were done using ANOVA with Tukey's test compared with BSA control. **p<0.01.
# (§2) ELISA was performed as previously reported1. […] After blocking with 2% BSA solution containing PBS-T, 1 μg/mL of recombinant human VEGF-A121 (PeproTech), recombinant human VEGF-A145 (R & D Systems), or recombinant human VEGF-A165 (PeproTech) was added. Bound VEGF-A was detected with 1 μg/mL of mouse anti-human VEGF-A antibody (clone: 26503, R & D systems). After 60 min of incubation, horseradish peroxidase (HRP) conjugated goat anti-mouse antibody (1:2000 dilution, Dako) was added and incubated for another 60 min. Color development and the absorbance measurement were done as described above.
# [2] = target: T4, pro-peptide containing recombinant vWF (UniProt P04275 23-2813); test: as above
# T4 construct: also called immature, pro-peptide-containing recombinant vWF
# Method: as §1, §2
# [3] = target: T5, recombinant human vWF A3 domain (human, UniProt P04275 1683-1874); test: as above
# T5 construct: domain: A3
# Method: as §1, §2
# laminin-332 = target: T6, laminin-332 (human, UniProt Q16787 28-1724; Q13751 18-1172; Q13753 22-1193, limits assumed); test: ELISA, GF coated, laminin 10 nM
# T6 construct: Full-length recombinant human laminin isoform (BioLamina); chains read from the isoform name
# laminin-511 = target: T7, laminin-511 (human, UniProt O15230 36-3695; P07942 22-1786; P11047 34-1609); test: ELISA, GF coated, laminin 10 nM
# T7 construct: Full-length recombinant human laminin isoform (BioLamina); chains read from the isoform name
# laminin-111 = target: T8, laminin-111 (human, UniProt P25391 18-3075; P07942 22-1786; P11047 34-1609); test: ELISA, GF coated, laminin 10 nM
# T8 construct: Full-length recombinant human laminin isoform (BioLamina); Chain composition is read from the isoform name
# laminin-411 = target: T9, laminin-411 (human, UniProt Q16363 25-1823; P07942 22-1786; P11047 34-1609); test: ELISA, GF coated, laminin 10 nM
# T9 construct: Full-length recombinant human laminin isoform (BioLamina); chains read from the isoform name
# T9 sequence (Q16363 25-1823 limits assumed, chain 1 of 3): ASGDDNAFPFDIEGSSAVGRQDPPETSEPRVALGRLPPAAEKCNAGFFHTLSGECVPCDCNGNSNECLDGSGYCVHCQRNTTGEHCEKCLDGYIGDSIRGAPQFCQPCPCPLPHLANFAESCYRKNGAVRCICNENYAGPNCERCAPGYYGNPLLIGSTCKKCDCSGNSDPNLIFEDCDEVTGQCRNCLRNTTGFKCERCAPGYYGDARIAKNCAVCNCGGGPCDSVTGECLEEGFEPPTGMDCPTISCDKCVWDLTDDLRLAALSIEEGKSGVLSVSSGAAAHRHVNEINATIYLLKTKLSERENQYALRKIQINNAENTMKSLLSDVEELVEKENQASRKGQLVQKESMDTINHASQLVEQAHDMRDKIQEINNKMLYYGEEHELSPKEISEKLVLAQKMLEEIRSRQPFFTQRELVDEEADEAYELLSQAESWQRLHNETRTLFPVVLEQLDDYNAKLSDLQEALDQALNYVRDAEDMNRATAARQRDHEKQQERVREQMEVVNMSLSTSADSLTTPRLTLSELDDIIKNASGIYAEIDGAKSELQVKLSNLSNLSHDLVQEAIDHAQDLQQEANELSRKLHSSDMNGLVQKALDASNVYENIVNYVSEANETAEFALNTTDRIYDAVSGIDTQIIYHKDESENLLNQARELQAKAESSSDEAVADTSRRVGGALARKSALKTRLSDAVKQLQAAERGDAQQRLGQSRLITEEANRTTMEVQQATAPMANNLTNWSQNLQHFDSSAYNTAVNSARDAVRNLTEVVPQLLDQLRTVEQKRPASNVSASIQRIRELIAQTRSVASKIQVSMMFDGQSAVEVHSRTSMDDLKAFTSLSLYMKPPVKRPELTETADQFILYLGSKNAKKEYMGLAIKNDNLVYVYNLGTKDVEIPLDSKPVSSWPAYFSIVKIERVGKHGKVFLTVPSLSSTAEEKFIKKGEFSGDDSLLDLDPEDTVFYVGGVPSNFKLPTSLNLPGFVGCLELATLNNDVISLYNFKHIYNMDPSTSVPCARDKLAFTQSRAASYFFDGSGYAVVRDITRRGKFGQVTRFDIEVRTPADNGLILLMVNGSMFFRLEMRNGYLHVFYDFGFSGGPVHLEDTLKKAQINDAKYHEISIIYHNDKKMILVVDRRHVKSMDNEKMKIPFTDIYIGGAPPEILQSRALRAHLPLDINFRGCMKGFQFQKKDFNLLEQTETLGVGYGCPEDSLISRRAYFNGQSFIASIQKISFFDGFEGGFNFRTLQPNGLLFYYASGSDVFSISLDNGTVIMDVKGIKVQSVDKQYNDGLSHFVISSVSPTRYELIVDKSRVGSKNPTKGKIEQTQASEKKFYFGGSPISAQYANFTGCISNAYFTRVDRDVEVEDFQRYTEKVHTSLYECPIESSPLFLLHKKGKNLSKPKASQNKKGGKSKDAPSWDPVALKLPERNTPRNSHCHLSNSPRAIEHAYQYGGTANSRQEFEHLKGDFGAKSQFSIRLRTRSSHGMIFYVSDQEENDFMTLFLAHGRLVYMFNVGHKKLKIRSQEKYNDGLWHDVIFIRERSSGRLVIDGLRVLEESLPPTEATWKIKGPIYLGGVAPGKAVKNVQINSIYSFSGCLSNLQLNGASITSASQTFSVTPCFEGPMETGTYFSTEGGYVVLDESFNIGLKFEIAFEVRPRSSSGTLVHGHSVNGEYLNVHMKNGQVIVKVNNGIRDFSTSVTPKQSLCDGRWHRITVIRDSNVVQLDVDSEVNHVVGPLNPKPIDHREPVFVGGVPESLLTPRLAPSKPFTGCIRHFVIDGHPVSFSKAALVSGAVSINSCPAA
# T9 sequence (P07942 22-1786 limits assumed, chain 2 of 3): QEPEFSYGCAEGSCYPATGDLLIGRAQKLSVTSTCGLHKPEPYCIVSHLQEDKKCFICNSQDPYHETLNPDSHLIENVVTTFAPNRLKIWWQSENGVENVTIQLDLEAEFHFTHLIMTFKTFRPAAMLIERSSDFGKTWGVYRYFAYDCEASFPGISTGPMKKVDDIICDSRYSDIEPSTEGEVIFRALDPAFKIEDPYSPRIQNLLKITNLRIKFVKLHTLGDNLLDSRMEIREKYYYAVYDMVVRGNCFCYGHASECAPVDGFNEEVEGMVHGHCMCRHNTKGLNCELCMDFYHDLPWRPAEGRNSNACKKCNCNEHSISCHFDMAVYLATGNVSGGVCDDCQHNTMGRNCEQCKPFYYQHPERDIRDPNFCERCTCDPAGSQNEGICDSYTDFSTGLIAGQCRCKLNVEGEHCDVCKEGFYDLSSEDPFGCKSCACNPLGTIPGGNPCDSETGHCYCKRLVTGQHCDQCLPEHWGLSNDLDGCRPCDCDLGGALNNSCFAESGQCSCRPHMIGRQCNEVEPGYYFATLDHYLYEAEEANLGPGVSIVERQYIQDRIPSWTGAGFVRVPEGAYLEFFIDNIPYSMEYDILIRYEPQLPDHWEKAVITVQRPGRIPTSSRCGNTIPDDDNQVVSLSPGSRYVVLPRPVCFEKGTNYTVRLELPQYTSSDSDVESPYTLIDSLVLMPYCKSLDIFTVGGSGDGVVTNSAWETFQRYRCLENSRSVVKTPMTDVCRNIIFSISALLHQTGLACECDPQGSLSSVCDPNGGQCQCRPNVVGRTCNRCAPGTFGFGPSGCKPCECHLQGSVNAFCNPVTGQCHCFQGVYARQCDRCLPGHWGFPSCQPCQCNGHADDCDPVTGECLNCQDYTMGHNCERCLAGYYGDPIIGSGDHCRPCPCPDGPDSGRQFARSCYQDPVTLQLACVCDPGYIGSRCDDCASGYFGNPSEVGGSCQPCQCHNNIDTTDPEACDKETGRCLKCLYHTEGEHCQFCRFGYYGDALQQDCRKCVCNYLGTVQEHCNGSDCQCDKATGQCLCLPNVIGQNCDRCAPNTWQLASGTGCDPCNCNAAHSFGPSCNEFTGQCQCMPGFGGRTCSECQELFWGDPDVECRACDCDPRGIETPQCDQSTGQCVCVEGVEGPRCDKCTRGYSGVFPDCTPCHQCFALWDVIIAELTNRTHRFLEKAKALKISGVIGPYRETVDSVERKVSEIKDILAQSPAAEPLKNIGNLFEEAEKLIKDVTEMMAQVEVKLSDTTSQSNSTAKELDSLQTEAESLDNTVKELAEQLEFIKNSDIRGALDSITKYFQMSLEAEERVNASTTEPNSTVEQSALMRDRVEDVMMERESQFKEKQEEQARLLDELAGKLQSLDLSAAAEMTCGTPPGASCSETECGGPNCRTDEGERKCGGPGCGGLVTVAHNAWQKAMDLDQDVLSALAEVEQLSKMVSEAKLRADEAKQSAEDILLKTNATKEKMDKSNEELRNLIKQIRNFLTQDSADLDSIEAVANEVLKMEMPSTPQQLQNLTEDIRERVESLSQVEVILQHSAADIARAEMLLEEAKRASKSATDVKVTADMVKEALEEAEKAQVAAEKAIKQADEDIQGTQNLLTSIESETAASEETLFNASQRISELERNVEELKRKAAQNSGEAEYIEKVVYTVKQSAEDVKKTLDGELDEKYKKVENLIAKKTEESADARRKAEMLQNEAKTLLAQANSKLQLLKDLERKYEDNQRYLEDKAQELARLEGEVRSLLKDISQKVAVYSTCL
# T9 sequence (P11047 34-1609 limits assumed, chain 3 of 3): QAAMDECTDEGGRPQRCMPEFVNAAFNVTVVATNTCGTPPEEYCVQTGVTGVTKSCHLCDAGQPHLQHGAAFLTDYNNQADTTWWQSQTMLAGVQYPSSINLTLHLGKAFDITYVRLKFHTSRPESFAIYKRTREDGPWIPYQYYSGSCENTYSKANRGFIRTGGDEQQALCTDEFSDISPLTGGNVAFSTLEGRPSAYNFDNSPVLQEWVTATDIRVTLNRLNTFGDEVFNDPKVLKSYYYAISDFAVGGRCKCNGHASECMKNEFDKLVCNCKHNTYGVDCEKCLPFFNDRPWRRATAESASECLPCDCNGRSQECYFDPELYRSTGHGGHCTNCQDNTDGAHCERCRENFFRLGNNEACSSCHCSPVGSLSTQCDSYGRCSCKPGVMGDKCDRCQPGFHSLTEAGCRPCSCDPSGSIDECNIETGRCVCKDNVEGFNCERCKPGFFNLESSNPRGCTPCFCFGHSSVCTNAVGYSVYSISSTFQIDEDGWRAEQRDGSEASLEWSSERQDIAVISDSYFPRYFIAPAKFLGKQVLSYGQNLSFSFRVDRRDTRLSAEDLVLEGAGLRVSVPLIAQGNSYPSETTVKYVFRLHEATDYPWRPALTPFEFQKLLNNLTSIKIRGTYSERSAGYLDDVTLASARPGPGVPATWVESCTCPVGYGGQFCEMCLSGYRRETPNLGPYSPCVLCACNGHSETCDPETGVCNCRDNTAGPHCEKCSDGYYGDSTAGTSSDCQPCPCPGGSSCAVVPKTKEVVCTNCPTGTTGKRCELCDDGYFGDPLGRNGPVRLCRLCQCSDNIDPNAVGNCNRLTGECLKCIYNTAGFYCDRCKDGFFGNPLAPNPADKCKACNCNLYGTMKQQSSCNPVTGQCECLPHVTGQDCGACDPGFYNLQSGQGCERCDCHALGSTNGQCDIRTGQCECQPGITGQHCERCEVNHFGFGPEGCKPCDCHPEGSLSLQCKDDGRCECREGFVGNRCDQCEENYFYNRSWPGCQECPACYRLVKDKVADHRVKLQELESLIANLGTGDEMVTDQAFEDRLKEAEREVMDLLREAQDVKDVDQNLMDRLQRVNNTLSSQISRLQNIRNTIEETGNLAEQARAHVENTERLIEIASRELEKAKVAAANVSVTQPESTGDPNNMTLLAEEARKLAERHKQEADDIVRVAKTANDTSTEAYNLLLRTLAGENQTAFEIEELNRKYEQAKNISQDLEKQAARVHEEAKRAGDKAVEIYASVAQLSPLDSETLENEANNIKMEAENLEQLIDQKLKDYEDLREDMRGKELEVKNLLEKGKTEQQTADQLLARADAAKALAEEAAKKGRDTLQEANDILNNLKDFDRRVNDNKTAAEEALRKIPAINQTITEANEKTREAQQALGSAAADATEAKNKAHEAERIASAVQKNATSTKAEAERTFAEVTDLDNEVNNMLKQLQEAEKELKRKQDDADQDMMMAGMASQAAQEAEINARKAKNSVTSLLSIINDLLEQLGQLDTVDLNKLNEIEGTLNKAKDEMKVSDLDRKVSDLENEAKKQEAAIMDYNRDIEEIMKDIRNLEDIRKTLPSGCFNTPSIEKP
# laminin-421 = target: T10, laminin-421 (human, UniProt Q16363 25-1823; P55268 33-1798; P11047 34-1609); test: ELISA, GF coated, laminin 10 nM
# T10 construct: Full-length recombinant human laminin isoform (BioLamina); chains read from the isoform name
# laminin-211 = target: T11, laminin-211 (human, UniProt P24043 23-3122; P07942 22-1786; P11047 34-1609); test: ELISA, GF coated, laminin 10 nM
# T11 construct: Full-length recombinant human laminin isoform (BioLamina); chains read from the isoform name
# laminin-521 = target: T12, laminin-521 (human, UniProt O15230 36-3695; P55268 33-1798; P11047 34-1609); test: ELISA, GF coated, laminin 10 nM
# T12 construct: Full-length recombinant human laminin isoform (BioLamina); chains read from the isoform name
# [4] = target: T13, recombinant human vWF A1 domain (human, UniProt P04275 1261-1468, limits assumed); test: ELISA; recombinant vWF A1 domain coated (10 µg/mL, legend paragraph 67), GF in solution, detected with anti-VEGF-A antibody [panel B]
# T13 construct: domain: A1; also called vWF A1 recombinant protein; recombinant A1 domain
# Method: FIGS. 18A-C. […] Bound GFs were detected using a specific antibody for each GF (n=4, mean±SD). Statistical analyses were done using ANOVA with Tukey's test or Student's t-test. *p<0.05, **p<0.01.
# ELISA tests were performed as described above. […] After blocking with 2% BSA solution containing PBS-T, 1 μg/mL of the recombinant human proteins VEGF-A121, VEGF-A165, PlGF-1, PlGF-2, PDGF-BB, FGF-2, CXCL-12α and CXCL-12γ were added. 1 μg/mL of BSA served as non-binding protein control. Bound GF or chemokine was detected with biotinylated antibodies for human VEGF-A, PlGF, PDGF-BB, FGF-2, or CXCL-12 (R & D Systems). The antibodies were detected by streptavidin-HRP (R & D Systems). Color development and the absorbance measurement were done as described above.
# human plasma-derived vWF = target: T14, human plasma-derived vWF (human, UniProt P04275 764-2813); test: ELISA, GF coated 50 nM, vWF 1 µg/mL
# T14 construct: mature; also called plasma-derived purified vWF; von Willebrand factor
# [5] = target: T1, recombinant laminin α3 2928-3150 …; test: ELISA, LG domain protein coated
# Method: Affinity of GFs against recombinant laminin LG domains. ELISA plates were coated with 1 μg/mL (A) α3₂₉₂₈₋₃₁₅₀, (B) α4₈₂₆₋₁₈₁₆, or (C) α5₃₀₂₆₋₃₄₈₂ and further incubated with 1 μg/mL of VEGF-A165, VEGF-A121, PlGF-2, PlGF-1, PDGF-BB, or FGF-2 solution. Bound GFs were detected using a specific antibody for each GF (n=4, mean±SEM). Statistical analyses were done using the Mann-Whitney U test by comparing the signals obtained from the laminin domain- and the BSA-coated wells. *p<0.05, **p<0.01. […] A SPR chip was functionalized with the laminin α3₂₉₂₈₋₃₁₅₀ recombinant protein (˜1000 RU), and each GF was flowed over the chip at indicated concentrations. Curves represent the specific responses (in RU) to laminin. Experimental curves were fitted with Langmuir binding kinetics.
# ELISA tests were performed as described above. […] 1 μg/mL of BSA served as non-binding protein control. After blocking with 2% BSA PBS-0.05% Tween 20 (PBS-T) solution, 1 μg/mL of the recombinant human proteins (VEGF-A121, VEGF-A165, PlGF-1, PlGF-2, PDGF-BB or FGF-2) or 10 μg/mL of biotinylated heparin (Sigma-Aldrich) were added. Bound GF was detected with biotinylated antibodies for human VEGF, PlGF, PDGF-BB, or FGF-2 (R&D Systems). The antibodies were detected by streptavidin-HRP (R&D Systems).
# [6] = target: T2, recombinant human VEGF-A145; test: ELISA; peptides and vWF forms coated at 50 nM, VEGF-A in solution, detected with anti-VEGF-A antibody [panel C]
# Method: as §1, §2
# [7] = target: B1; test: ELISA; peptides and vWF forms coated at 50 nM, VEGF-A in solution, detected with anti-VEGF-A antibody [panel D]
# Method: as §1, §2
# [8] = target: T15, vascular endothelial growth factor (VEGF)-A165 (human, UniProt P15692-4 27-191); test: ELISA; peptides and vWF forms coated at 50 nM, VEGF-A in solution, detected with anti-VEGF-A antibody [panel B]
# T15 construct: mature; Purchased in mature form, not glycosylated
# Method: as §1, §2
binding result (laminin-332),binding result (laminin-511),binding result (laminin-111),binding result (laminin-411),binding result (laminin-421),binding result (laminin-211),binding result (laminin-521),binding result (human plasma-derived vWF),binding result [5],Binder,binding result [1],binding result [2],binding result [3],binding result [4],binding result [6],binding result [7],binding result [8]
no binding (tested: A450 0.1),no binding (tested: A450 0.1),no binding (tested: A450 0.1),no binding (tested: A450 0.1),no binding (tested: A450 0.1),no binding (tested: A450 0.1),no binding (tested: A450 0.1),no binding,no binding (tested: 1 µg/mL),B1,no binding (tested: 1 µg/mL VEGF-A121 (single concentration)),no binding (tested: 1 µg/mL VEGF-A121 (single concentration)),no binding (tested: 1 µg/mL VEGF-A121 (single concentration)),no binding (tested: 1 µg/mL VEGF-A121 (single concentration)),,,
,,,,,,,,,YIGLKDSKSPSELSSIASQVKYAC (not in the list MOLECULES; also called vWF A1 HBD with Arg substituted by Ser; mutated HBD peptide) [Arg substituted HBD],,,,,no binding (tested: 1 µg/mL VEGF-A145 (single concentration)),no binding (tested: 1 µg/mL VEGF-A121 (single concentration)),no binding (tested: 1 µg/mL VEGF-A165 (single concentration))
